# From patent publication US20200400655A1, “RATIOMETRIC BRET MEASUREMENTS OF ATP WITH A GENETICALLY-ENCODED LUMINESCENT SENSOR” (Purdue Research Foundation, priority 2019, published 2020)
# Columns and labels:
# [1] = tested on: HEK293A cells; assay: Live single-cell BRET microscopy with metabolic inhibition; format: cell-based; settings: metabolic inhibition with 10 mM 2DG and 2.5 μM oligomycin A, ambient temperature
# Description: Live single-cell microscopy. The sensor genes were sub-cloned into the GW1 mammalian expression vector, and HEK293A cells were transfected by the calcium phosphate method. Cells were imaged with 30 second exposure times and 2 minute imaging interval on an Olympus IX83 microscope with a 40× 1.35 NA Apo oil objective, an Andor Xyla 4.2 sCMOS camera at 2-by-2 pixel binning, and 470/24 nm and 632/60 nm emission filters. Just prior to the addition of furimazine, well volume was exchanged twice with imaging media without glucose. After adding furimazine, a three point baseline was acquired. […] Cells were imaged for ˜30 minutes until luminescence decayed to background. Image backgrounds were subtracted before calculating the ratio images of the luminescence channels using ImageJ. […]
# After removing the plate from the incubator, cell growth media was exchanged for imaging media (15 mM HEPES, 120 mM NaCl, 3 mM KCl, 3 mM NaHCO3, 1.25 mM NaH2PO4, 10 mM glucose, 2 mM CaCl2, 1 mM MgCl2). Imaging regions were determined using mScarlet fluorescence and DIC. […] Cells were imaged until luminescence decayed to background (20-30 minutes). Image backgrounds were subtracted (rolling ball radus 100 pixels) before calculating the ratio images of the luminescence channels using ImageJ. […] For FIG. 3, binary masks were generated using channel luminescence to remove pixels in ratio image corresponding to background. […]
# [2] = Whole-animal imaging of purified sensor protein placed subcutaneously in mice; format: in vivo, Balb/c mice; settings: 10 mM vs 0 mM ATP, subcutaneous hindlimb, unshaved mice, n=3
# Description: (§1) Animal Imaging System. All animal procedures were performed in strict accordance with recommendations provided in the National Institutes of Health (NIH) Guide for the Care and Use of Laboratory Animals, according to protocols approved by the Purdue Animal Care and Use Committee and the Purdue University Laboratory Animal Program to minimize pain and suffering. Male and female adult Balb/c and FVB mice were sacrificed and then injected with protein solution or live cells subcutaneously in the hind limb area. NanoLuc substrate, either 20 μM coelenterazine-h or 0.5× Promega Nano-Glo furimazine solution, was mixed with the sample just prior to injection. Protein, cells, and animals were imaged at ambient temperature. […] Therefore, in this study we used the SI Ami HT equipped with a 510/20 nm and 650/20 nm emission filters for all subsequent experiments.
# For imaging of purified protein in mice, mScarlet-ε-NanoLuc protein pre-equilibrated with 0 mM or 10 mM ATP was mixed with 20 μM coelenterazine-h. The reaction mixture was enclosed in a custom plastic tube and placed subcutaneously in the left (0 mM ATP) and right (10 mM ATP) hindlimb areas of adult Balb/c mice carcass. The sequential imaging was immediately performed using a spectral Ami with 510/20 and 650/20 nm filters (30 sec exposure time, binning 2×2, FOV 25, f-stop 1.2). […]
# [3] = Ratiometric BRET imaging of purified mScarlet-ε-NanoLuc protein on SI Ami HT whole-animal imaging system; format: binding; settings: protein solutions
# Source text: (§2) Protein Engineering and Library Screen. Sensors were constructed by Gibson Assembly using the NEB HiFi kit, sub-cloned into the pRSETB vector for expression as His-tagged protein in BL21(DE3) E. coli, and purified by nickel-affinity chromatography. CeNL/pcDNA3 was a gift from Takeharu Nagai (Addgene plasmid #85199), pcDNA3-mNeonGreen was a gift from Richard Day (Indiana University), pCytERm-mScarlet_N1 was a gift from Dorus Gadella (Addgene plasmid #85066), and pBad-HisB-RRvT (Addgene plasmid #87364) and pBad-HisB-GRvT (Addgene plasmid #87363) were gifts from Robert Campbell. The fluorescence and luminescence ATP dose-response curves for purified protein solutions were measured on a BioTek Synergy H4 multi-mode microplate reader at ambient temperature. Luminescence was also measured using a Spectral Instruments Ami HT. […]
# (§3) The fluorescence and luminescence of purified sensor proteins were investigated in assay buffer (50 mM MOPS-KOH, 50 mM KCl, 0.5 mM MgCl2, and 0.05% Triton X-100, pH 7.3) in a 96-well plate using a BioTek Synergy H4 multi-mode microplate reader at ambient temperature. […] Luminescence spectra were scanned from 400 to 650 nm. Emissions of NanoLuc and mScarlet were measured using 450/50 and 620/15 nm emission filters, respectively, and the BRET efficiency was obtained by calculating the emission ratio of mScarlet/NanoLuc. […]
# [4] = Library screen: FRET and BRET dynamic range of purified sensors after addition of saturating ATP; format: binding
# Source text: as §2, §3
# [5] = tested on: HEK293A cells; assay: Bioluminescence imaging of adherent sensor-expressing cells in Spectral Ami, glucose vs metabolic inhibitors; format: cell-based; settings: for mScarlet-ε-NanoLuc ratio signal: n=6
# Description: HEK293A cells were transfected with plasmids carrying mScarlet-ε-NanoLuc by calcium phosphate method. One day after transfection, cells were passaged onto a 96-well plate at different cell densities from 1,250 to 20,000 cells per well. After an additional 24-48 hours, imaging was performed using a spectral Ami with 510/20 nm and 650/20 nm filters (5 sec exposure time, binning 2×2, FOV 25 cm, f-stop 1.2) immediately after the addition of 20 μM coelenterazine-h.
# We first validated that we could measure differences in energy metabolism using adherent cell cultures. HEK293A cells expressing mScarlet-ε-NanoLuc were seeded at different densities, from 62,500 cells/cm^2 down to 4,000 cell/cm^2 to determine the sensitivity of detection in the Spectral Ami system. […] Thus, the sensor effectively detects metabolic differences in live cells in a dish within the animal imager.
# [6] = tested on: HEK293A cells; assay: Whole-animal imaging of sensor-expressing live cell suspensions injected subcutaneously in mice; format: in vivo; settings: 10^6 live cells subcutaneous, unshaved adult FVB mice, n=6
# Description: as §1
# For imaging of purified protein in mice, mScarlet-ε-NanoLuc protein pre-equilibrated with 0 mM or 10 mM ATP was mixed with 20 μM coelenterazine-h. […]
# We next carried out ratiometric imaging of live cells injected in whole animals. […] The total luminescence intensity provides an indicator of the total protein expression level, and critically we observed that the BRET ratio was dependent on the metabolic condition only and was independent of the level of luminescence intensity (FIG. 5).
# [7] = ATP dose-response of purified mScarlet-ε-NanoLuc, luminescence BRET ratio on microplate reader; format: binding; settings: purified protein; for BRET ratio: n=3
# Source text: Protein Engineering and Library Screen. Sensors were constructed by Gibson Assembly using the NEB HiFi kit, sub-cloned into the pRSETB vector for expression as His-tagged protein in BL21(DE3) E. coli, and purified by nickel-affinity chromatography. CeNL/pcDNA3 was a gift from Takeharu Nagai (Addgene plasmid #85199), pcDNA3-mNeonGreen was a gift from Richard Day (Indiana University), pCytERm-mScarlet_N1 was a gift from Dorus Gadella (Addgene plasmid #85066), and pBad-HisB-RRvT (Addgene plasmid #87364) and pBad-HisB-GRvT (Addgene plasmid #87363) were gifts from Robert Campbell. The fluorescence and luminescence ATP dose-response curves for purified protein solutions were measured on a BioTek Synergy H4 multi-mode microplate reader at ambient temperature. Luminescence was also measured using a Spectral Instruments Ami HT. Plasmids generated in this study are distributed via Addgene.
# The fluorescence and luminescence of purified sensor proteins were investigated in assay buffer (50 mM MOPS-KOH, 50 mM KCl, 0.5 mM MgCl2, and 0.05% Triton X-100, pH 7.3) in a 96-well plate using a BioTek Synergy H4 multi-mode microplate reader at ambient temperature. For FRET library screening, 420/50 and 485/20 nm excitation filters and 485/20, 528/20, and 620/15 nm emission filters were used. For BRET screening, 20 μM coelenterazine-h was used as a substrate of NanoLuc and 450/50, 485/20, 528/20, and 620/15 nm emission filters were used. For characterization of mScarlet-ε-NanoLuc, 20 μM coelenterazine-h was applied to a reaction solution containing the purified sensor protein and 0-10 mM ATP in assay buffer. Luminescence spectra were scanned from 400 to 650 nm. Emissions of NanoLuc and mScarlet were measured using 450/50 and 620/15 nm emission filters, respectively, and the BRET efficiency was obtained by calculating the emission ratio of mScarlet/NanoLuc. Luminescence was also measured using a Spectral Instruments Ami HT with 510/20 and 650/20 nm emission filters (binning 2×2, FOV 25 cm, f-stop 1.2). Purified mScarlet-ε-NanoLuc protein in assay buffer with 0-10 mM ATP was imaged with a 1 sec exposure time after the addition of 20 μM coelenterazine-h. For measurements at different concentrations (1-100 nM) of mScarlet-ε-NanoLuc protein, the purified protein was mixed with 10 mM ATP or 0 mM ATP and imaged after the addition of 20 μM coelenterazine-h with a 5 sec exposure time for a total 30 min. Regions of interest were drawn over each well for all filter sets, and the average radiance was determined.
molecule,measurement,setting,value
"mScarlet-ε-NanoLuc: BRET-only ATP sensor: mScarlet (N-terminus), B. subtilis ε subunit, NanoLuc (C-terminus); SEQ ID NO:1 (protein, mScarlet-e-NanoLuc) MVSKGEAVIKEFMRFKVHMEGSMNGHEFEIEGEGEGRPYEGTQTAKLKVTKGGPLPFSWDILSPQFMYGSRAFTKHPADIPDYYKQSFPEGFKWERVMNFEDGGAVTVTQDTSLEDGTLIYKVKLRGTNFPPDGPVMQKKTMGWEASTERLYPEDGVLKGDIKMALRLKDGGRYLADFKTTYKAKKPVQMPGAYNVDRKLDITSHNEDYTVVEQYERSEGRHSTGRHIDMKTVKVNITTPDGPVYDADIEMVSVRAESGDLGILPGHIPTKAPLKIGAVRLKKDGQTEMVAVSGGTVEVRPDHVTINAQAAETAEGIDKERAEAARQRAQERLNSQSDDTDIRRAELALQRALNRLDVAGKANEFMLEDFVGDWRQTAGYNLDQVLEQGGVSSLFQNLGVSVTPIQRIVLSGENGLKIDIHVIIPYEGLSGDQMGQIEKIFKVVYPVDDHHFKVILHYGTLVIDGVTPNMIDYFGRPYEGIAVFDGKKITVTGTLWNGNKIIDERLINPDGSLLFRVTINGVTGWRLCERILA",change in the absolute BRET ratio,[1],−71%
same,difference in the ratio with vs without ATP imaged through tissue and fur,[2],greater than 3 fold
same,dynamic range in ATP dose response,[3],5 fold
same,Fold-Change in Ratio BRET,"[4]; after addition of saturating ATP, purified protein, 20 μM coelenterazine-h",5.12 ± 0.18
same,change in the BRET ratio upon saturation with ATP,"[4]; purified sensor, zero to saturating ATP",5 fold
same,"difference in ratio signal, glucose vs metabolic inhibitors",[5],~3 fold
same,mScarlet-ε-NanoLuc ratio signal,[5]; addition of glucose,0.29±0.04
same,mScarlet-ε-NanoLuc ratio signal,[5]; metabolic inhibitors 2DG and oligomycin A,0.11±0.01
same,"ratio difference between glucose and inhibitor-treated cells through tissue and fur, compared with cell suspensions in a dish",[6],same ratio difference
same,BRET ratio,[7]; 0 mM ATP,0.0063±0.0001
same,BRET ratio,[7]; 10 mM ATP,0.0324±0.009
same,BRET ratio stability over time during luminescence intensity decay,[7],stable over time
same,maximal change in BRET ratio upon ATP saturation,[7],greater than 4 fold
